Reference: PMC11711546 (2024)

B1: TSHZ3-HA wild-type (teashirt zinc finger homeobox 3) [human] / SOX9-Flag (SRY-box transcription factor 9) [not stated] (parent complex)
chain 1: MPRRKQQAPRRAAAYVSEELKAAALVDEGLDPEEHTADGEPSAKYMCPEKELARACPSYQNSPAAEFSCHEMDSESHISETSDRMADFESGSIKNEEETKEVTVPLEDTTVSDSLEQMKAVYNNFLSNSYWSNLNLNLHQPSSEKNNGSSSSSSSSSSSCGSGSFDWHQSAMAKTLQQVSQSRMLPEPSLFSTVQLYRQSSKLYGSIFTGASKFRCKDCSAAYDTLVELTVHMNETGHYRDDNHETDNNNPKRWSKPRKRSLLEMEGKEDAQKVLKCMYCGHSFESLQDLSVHMIKTKHYQKVPLKEPVTPVAAKIIPATRKKASLELELPSSPDSTGGTPKATISDTNDALQKNSNPYITPNNRYGHQNGASYAWHFEARKSQILKCMECGSSHDTLQELTAHMMVTGHFIKVTNSAMKKGKPIVETPVTPTITTLLDEKVQSVPLAATTFTSPSNTPASISPKLNVEVKKEVDKEKAVTDEKPKQKDKPGEEEEKCDISSKYHYLTENDLEESPKGGLDILKSLENTVTSAINKAQNGTPSWGGYPSIHAAYQLPNMMKLSLGSSGKSTPLKPMFGNSEIVSPTKNQTLVSPPSSQTSPMPKTNFHAMEELVKKVTEKVAKVEEKMKEPDGKLSPPKRATPSPCSSEVGEPIKMEASSDGGFRSQENSPSPPRDGCKDGSPLAEPVENGKELVKPLASSLSGSTAIITDHPPEQPFVNPLSALQSVMNIHLGKAAKPSLPALDPMSMLFKMSNSLAEKAAVATPPPLQSKKADHLDRYFYHVNNDQPIDLTKGKSDKGCSLGSVLLSPTSTAPATSSSTVTTAKTSAVVSFMSNSPLRENALSDISDMLKNLTESHTSKSSTPSSISEKSDIDGATLEEAEESTPAQKRKGRQSNWNPQHLLILQAQFAASLRQTSEGKYIMSDLSPQERMHISRFTGLSMTTISHWLANVKYQLRRTGGTKFLKNLDTGHPVFFCNDCASQIRTPSTYISHLESHLGFRLRDLSKLSTEQINSQIAQTKSPSEKMVTSSPEEDLGTSYQCKLCNRTFASKHAVKLHLSKTHGKSPEDHLLYVSELEKQ
chain 2: MNLLDPFMKMTDEQEKGLSGAPSPTMSEDSAGSPCPSGSGSDTENTRPQENTFPKGEPDLKKESEEDKFPVCIREAVSQVLKGYDWTLVPMPVRVNGSSKNKPHVKRPMNAFMVWAQAARRKLADQYPHLHNAELSKTLGKLWRLLNESEKRPFVEEAERLRVQHKKDHPDYKYQPRRRKSVKNGQAEAEEATEQTHISPNAIFKALQADSPHSSSGMSEVHSPGEHSGQSQGPPTPPTTPKTDVQPGKADLKREGRPLPEGGRQPPIDFRDVDIGELSSDVISNIETFDVNEFDQYLPPNGHPGVPATHGQVTYTGSYGISSTAATPASAGHVWMSKQQAPPPPPQQPPQAPPAPQAPPQPQAAPPQQPAAPPQQPQAHTLTTLSSEPGQSQRTHIKTEQLSPSHYSEQQQHSPQQIAYSPFNLPHYSPSYPPITRSQYDYTDHQNSSSYYSHAAGQGTGLYSTFTYMNPAQRPMYTPIADTSGVPSIPQTHSPQHWEQPVYTQLTRP
B2: TSHZ3-HA wild-type (teashirt zinc finger homeobox 3) [human] / MYOCD-Flag (myocardin) [not stated] (parent complex)
chain 1: B1 chain 1
chain 2: MTLLGSEHSLLIRSKFRSVLQLRLQQRRTQEQLANQGIIPPLKRPAEFHEQRKHLDSDKAKNSLKRKARNRCNSADLVNMHILQASTAERSIPTAQMKLKRARLADDLNEKIALRPGPLELVEKNILPVDSAVKEAIKGNQVSFSKSTDAFAFEEDSSSDGLSPDQTRSEDPQNSAGSPPDAKASDTPSTGSLGTNQDLASGSENDRNDSASQPSHQSDAGKQGLGPPSTPIAVHAAVKSKSLGDSKNRHKKPKDPKPKVKKLKYHQYIPPDQKAEKSPPPMDSAYARLLQQQQLFLQLQILSQQQQQQQHRFSYLGMHQAQLKEPNEQMVRNPNSSSTPLSNTPLSPVKNSFSGQTGVSSFKPGPLPPNLDDLKVSELRQQLRIRGLPVSGTKTALMDRLRPFQDCSGNPVPNFGDITTVTFPVTPNTLPNYQSSSSTSALSNGFYHFGSTSSSPPISPASSDLSVAGSLPDTFNDASPSFGLHPSPVHVCTEESLMSSLNGGSVPSELDGLDSEKDKMLVEKQKVINELTWKLQQEQRQVEELRMQLQKQKRNNCSEKKPLPFLAASIKQEEAVSSCPFASQVPVKRQSSSSECHPPACEAAQLQPLGNAHCVESSDQTNVLSSTFLSPQCSPQHSPLGAVKSPQHISLPPSPNNPHFLPSSSGAQGEGHRVSSPISSQVCTAQMAGLHSSDKVGPKFSIPSPTFSKSSSAISEVTQPPSYEDAVKQQMTRSQQMDELLDVLIESGEMPADAREDHSCLQKVPKIPRSSRSPTAVLTKPSASFEQASSGSQIPFDPYATDSDEHLEVLLNSQSPLGKMSDVTLLKIGSEEPHFDGIMDGFSGKAAEDLFNAHEILPGPLSPMQTQFSPSSVDSNGLQLSFTESPWETMEWLDLTPPNSTPGFSALTTSSPSIFNIDFLDVTDLNLNSSMDLHLQQW

Variants of: B1
Assay: co-immunoprecipitation (anti-HA beads), Western blot densitometry; parent: 1; read off a plot

response | Variant
~0.46 SOX9-Flag / TSHZ3-HA in IP | chain 1 S58G
~1.1 SOX9-Flag / TSHZ3-HA in IP | chain 1 P63L
~1.4 SOX9-Flag / TSHZ3-HA in IP | chain 1 A65T

Variants of: B2
Assay: as above

response | Variant
~1.5 MYOCD-Flag / TSHZ3-HA in IP | chain 1 A65T
~1.6 MYOCD-Flag / TSHZ3-HA in IP | chain 1 P63L
~1.9 MYOCD-Flag / TSHZ3-HA in IP | chain 1 S58G
